Experimental data reported in the DeepSol protein solubility set.

Test: soluble on expression in E. coli; label from the status in PepcDB or PDB records

Row | Sequence | soluble on expression in E. coli
1 | MEQYDQLYRLYKSVDTTTLRGYQEFVDLFPPLSSTVALEQWETASDRLDALKADITDEFPGTGETYAEIAARLTRDEAFTALDLYSKYDRSVNVLVLDVDETLRSAGDTDNEIPRDTLYLLTQFHEAGIPIVVCTGQTLENVKGFMIQGLGNDLVSSGQMSIVYESGNGVFTPKHGEDTKRLLYERLDGAVVDVFETVRRRVLSEAPDAVGKRCHLQGNEFNVTLKPNAEVGSDNAVEIIDESLCYLCGLVGDAIAAQVDAEVDDPAGYARAYFSRDPEILDVLEAGGLPTHADIEDAPEAFRDILERVDLGYYEGDAAELVSLELDKSAGVEEAFDVLGIDDPFALVMGDSKSDLRVMRWVDENDAGIAAAPAHSSPDVLDHVSSRDDLVYEAGDASTVLRTIYGISLVEQLDEQGE | soluble
2 | MEQYYGTGRRKEAVARVFLRPGNGKVTVNGQDFNEYFQGLVRAVAALEPLRAVDALGHFDAYITVRGGGKSGQIDAIKLGIARALVQYNPDYRAKLKPLGFLTRDARVVERKKYGKHKARRAPQYSKR | soluble
3 | MERIDSHVSPRYAQIPTFMRLPHDPQPRGYDVVVIGAPYDGGTSYRPGARFGPQAIRSESGLIHGVGIDRGPGTFDLINCVDAGDINLTPFDMNIAIDTAQSHLSGLLKANAAFLMIGGDHSLTVAALRAVAEQHGPLAVVHLDAHSDTNPAFYGGRYHHGTPFRHGIDEKLIDPAAMVQIGIRGHNPKPDSLDYARGHGVRVVTADEFGELGVGGTADLIREKVGQRPVYVSVDIDVVDPAFAPGTGTPAPGGLLSREVLALLRCVGDLKPVGFDVMEVSPLYDHGGITSILATEIGAELLYQYARAHRTQL | soluble
4 | MERIIQQTDYDALSCKLAAISVGYLPSSGLQRLSVDLSKKYTEWHRSYLITLKKFSRRAFGKVDKAMRSSFPVMNYGTYLRTVGIDAAILEFLVANEKVQVVNLGCGSDLRMLPLLQMFPHLAYVDIDYNESVELKNSILRESEILRISLGLSKEDTAKSPFLIDQGRYKLAACDLNDITETTRLLDVCTKREIPTIVISECLLCYMHNNESQLLINTIMSKFSHGLWISYDPIGGSQPNDRFGAIMQSNLKESRNLEMPTLMTYNSKEKYASRWSAAPNVIVNDMWEIFNAQIPESERKRLRSLQFLDELEELKVMQTHYILMKAQWHHHHHH | soluble
5 | MERISLSFVGDVMLAGSATDTLQRYGYSYPFSATAAELRRSDLVVGNLEAPLTDGGREFRAKRFRFKASPVAAAALKRAGFSVMTLANNHMMDFGADGLSDTIHHLNRNGIAFAGAGPSIADARREASVTVRGQTVAFLAYSLTQPIEFFATEGRPGTAPGYAGHYLADIRRVRSSADHVVVSFHWGQERAALPSPYQIETAHRAIDAGADIVIGHHPHVLQGIEIYRGSPIFYSLGNFAFGSRSPSADRSIIARVTLGEGPPIVEVIPLNVLFREVRFQPAILTGRKAADVVDRLNRLSAPFSTVITSTAGSHLVAPAEANARLARRQLEHHHHHH | not soluble
6 | MERLSPVFATSKSSNMEVEHWMTSLKEVEKVLDSVEPKLTSSGTKWRVVAQHIKDICSDLNQIFNKEDPRYEVVQAGASAAHDFDVRYLDIHKVRTPHEPLEMRHSKGRKHGREIARLLEKIQKYRQEIEEIKKEYKETDKYRERYDHYKVKLDNLEKKNKDQERIERNQQKFKDAEAAYSSVCADLIQKMETVWKKHVSIFAEAASAVWSTQLQYAKALEAAANPIVPYLQQEEQEEEEEEEAASGTQGRVAEKAYHTNEEKVENSFQKNSAIPPSFRTASEQLTEQSKNINNAKNTSETSPAEDIEA | soluble
7 | MERVAPNGQFKDVGVDQLFFSTTDAQGRIQETNNTFVELSRYTEEELRNAAHNIIRHPFMPGGVFKIMWDKLQRGETFAGYVRNLAHSGETYDVFATVTPIPGTHDYLSVRQRPCHDDHRALAMTIYAEVGDYEAQLRKDGMSAREAAEAGAGLIGDKLRESGFDNFDAYAHAMLPWEVFCRENMSTGLPQREVAGDLGTELAQAHDVHDHLDEWMLRLDELLTTAQQLGEAREELVDSLGQTSSLGDTIDARSASETLQIVQFQLNVWKGMQKIVDSYVVELAELITTLANDTLRERFQISVSRLHTAMLATFLAELIDGTSATANTEHKVALLKATMRDSLEAIDRGAFHRAQLVRSTISCIRTVTSLMESPRSLLTEAIREAQSLNNDELSAAIATELERSERAANNMHQLVATLESTATTPDIAAMLAEL | not soluble
8 | MERYAAALEEVADGARQQERHYQLLSALQSLVKELPSSFQQRLSYTTLSDLALALLDGTVFEIVQGLLEIQHLTEKSLYNQRLRLQNEHRVLRQALRQKHQEAQQACRPHNLPVVQAAQQRELEAVEHRIREEQRAMDQKIILELDRKVADQQSTLEKAGVAGFYVTTNPQELMLQMNLLELIRKLQQRGCRAGNAALGLGGPWQSPAAQCDQKGSPVPP | soluble
9 | MESIKVVIVGGGQAGIAMGYYLVKEKVPFMILDANEQVGDSWRNRYDSLVLFTPRTYSQLPGFPMDGAPNGFPTKDEMASYLQQYANHFNLPMRHHTKVDRVTRQQNGRFHLKTTNGWIEAEKVVIATGAFQKPYLPPVLDSANNEMSQVHSSAYRNPAQIPGKSVLVVGGGNSGAQIAVELAKERNVTMAISHPFRFLPLKLLNKSMFSWLEWGGLLYAGIDTTRGRWFKKQKDPIFGKELKSLIKKGQIHLKPRVMNVQGKEVEFADHSRLSFDRIIWSTGFSPSYEWIDIDGVIATNGWPIHNRGITNIRGLYFLGLPWQYQRGSALVCGVGRDAEYLVPFIKHGDK | not soluble
10 | MESLQNHFLIAMPSLDDTFFERTVIYLCEHDEKGAMGLVINKPLGIEVNSLLEQMDLPTEQVSADLAMGSQVLMGGPVSQDRGFVLHTSQPYWANSTELGSGLMLTTSRDVLTAIGSKRSPDKFLVALGYAGWSKNQLEQELADNSWLTIPADHALLFDINHEDRWQQASRSLGFEAWQLSTQAGHALEHHHHHH | soluble
11 | MESSIKVGISSCVLGERVRFDSGHKVSNFVTKELSNYFDFVSVCPEVGVGMPVPRPTIRLISNEERIALVETKNPDNDHTDNMLTYSANKVDELQNEQLCGYIVCAKSPTCGMERVKVYSKNNAAKEGVGLYTKTLMEKMPWLPVEEDGRLNDPVLKENFITRIYCLNDFYESMAGEPTRGKIIDFHSRYKLTLMAHHPESYRSLGRLVADVASYEIDEFYREYRLGLMTALSNRASRKNNTNVLMHLQGYFKRSLNKDEKEELATVIQDYRTGTLPLLAPLTLIKHYLNAYPDEYLQRQKFLEPHPQEMRLRYGL | not soluble
12 | MESVAAESAPAPENEHSQETPESNSSVYTTFMKSHRCYDLIPTSSKLVVFDTSLQVKKAFFALVTNGVRAAPLWDSKKQSFVGMLTITDFINILHRYYKSALVQIYELEEHKIETWREVYLQDSFKPLVCISPNASLFDAVSSLIRNKIHRLPVIDPESGNTLYILTHKRILKFLKLFITEFPKPEFMSKSLEELQIGTYANIAMVRTTTPVYVALGIFVQHRVSALPVVDEKGRVVDIYSKFDVINLAAEKTYNNLDVSVTKALQHRSHYFEGVLKCYLHETLEAIINRLVEAEVHRLVVVDEHDVVKGIVSLSDILQALVLTGGEKKP | soluble
13 | METAWSNILNYKNVSDRYILTEKDKKGAFTRQYFEVYEARLKELKPRILENAEREIGKGKFTHSQLSDAKQDEEIFVVGVIVKRIAARPSILKSLLNEDKVAYDDYEEDAEEDEVKRYAGSIEDRIELESDKQTVRLEGNISMDECATGCCVGVLGKLGKEGVFHVNRLVWPSVKVPKKVAVDGTIAFVSGLDLTGDLEDDRLTISGLEFMADWMNVQVGNENQCPPIDRLVVIGPLVETKSNGCDVQSVVRTLTLSRAEKHSSTASLITVDKIINSIAEKPLVNTVDVTPGVGDPCSSMWPLPPIHRVCLPRCGMSDKKVNLVTNPYEFEVNGLRVMTMSGENVSELLRTSLKWTGADAIENIIKWQHVAPNCPDTLDAFPVAERDPLIMDITPHVIICGNQPHAEFRHIPIDGSNCLVVCLPKFSKTRVACFLNLSDLSLKWQNFDHQF | not soluble
14 | METDPDYSMVLLTENFPPYNMAINGKNFAQEDNIDGIAVDIVREMFKRAGIKYSLTLRFPWDRIYKLALEKPGYGVFVTARLAEREDKFKWVGPIGPDDWVLLAKGDSPITLGSLDEAKKYRIGAYKGDAIAEFLGKNGFEADLALRDQENAQKLVKGQIDLWASGDPAGRYLAKQEGVTGLKTVLRFNSDQLYLALNRETPDEVVQKLQAALDGMRKEGFVEDILNSYLLEHHHHHH | soluble
15 | METEICEQLGDLHLDKEAILLRAEQIEQDIKARKYSVIPPLSDEEQNLLDAEIAKRAAPPPGVPDAADFPLHDIVKELGLDKPVDGTDPEFYEELKAKDANTVYKNMKDVPDSIAAKYLPDLARRFVEFERRVKRVERMLWALPREDRSLEEDRFEILTELLDKSCQGLEIWEEHCERKIPLGHRCVLEGELIHLITSKFDLIDKICGEFDKLKNKRSEVNDERDMLRYEIRHCDMIFTEIHEKFLKSYLEMDW | not soluble
16 | METEIPVNEKETSFRRRVYTTIETLIDIENTDQLQEHLPHLHCLGWDEVVEERYVNKQCGFPSCQKAPPKITRNQMFEIDRKEGKIFEFRKQRAKFCSEMCYQKSSFVRKQLDEHPLWITGLTEARTQKVYEVPDESFVSPIAEKSEPVDSQFKKEPSIWLVTDSIIAKVQDMKLSEEAEEPKSLDPEDQDIEPFKLTDDDKDFIKSIKEFRNSNFGPPSTSKLLKTAPKPVLSAKDRKKEDEVLAKLRAKYGNKNALQKKPPILIEAQEIHSKLKTMEKAKEAWLVDLIKSWFTPETRKLVREGARPTGGAAEQILMDFLSGKKVDAEKLVNLPNLDKYNVKEKRLNIFLHSIRNHWMDLEARLHLTPTRRDILSRVASTFQLDSENITGWTKREINSIVIALFIVICLVDVELGDDYFKKDNASPELTAISNELCGLDSFQITGLHAAIKSQC | not soluble
17 | METHLGWARSLEAVLSDRSALDAFQEWLIEYSSPQYLDLFFAIRAYERMALEGKPEKSQLSKSIYSKFLSSRTGNCEAIPKHFRAPIGEKLRHGTELEDRVFSHCSNFVQEFLRRQHEEFVGSEEFIEAFNKMSSTTADQLPGGSAHHSSHQNTMRRSSGTTSRKSAAQIATQLTAEALLKSKHDRHSKLGETKLEKMYPPTRQPYVCNATTSHNDSAVSSTFSGDTPEAHRMHSNRLRHIRDEQARENHGTMTLPRVEKASVDGQQWDHSSESGRRNFAMEITRKLLRHIDKVKLNDEMEKRIDDIEECRYTTIDMVNGTEPNDDLGKIDEDEELDDYLKMKMTDDSQKGSTNRSPKGPAGEPNKSGEGSKNTTLSPTNRAPAQLHNTIRVPRRKDYPRDTSASLKSHRHHQIDTNRMMSQSMCAPSYSSASSSYSRDSFAPAPTTRVNFAPGSSKSSQFYDSSGIGSMAPSAFSATSSLDYKDRRQHRKAPTPKKHSKIGKNLSNLITISYLGTDKIPVVTHVPNDGPMTLAEFKRHFALPNGAHQLFFKTECEDGSAPFQLLLIKDEHHLLPVFEGRIAAELR | not soluble
18 | METNMTFVLKEFDALKSHFNDTVKIILQREKKDKIEDLPNPRKEELQFLTAVLNQLEAKIDELKPRSLASYVHVFYGAMLLVCKDVENNLRVMEKKENSLLFTRLMDGMGISDENIPTSEQNIMFYRGLNKFLNFIYESNDSRKGLKKEHFLQVLSLKKIYSLAKLSYEQEEAAENNALAKLTADGKTKANANSFHVEKPIDSSIVEQFKSWDEMKGALHQLILDELSDKNVAKISALSQARSAQLKFLQTMAEQLDKIPNQSLEPSEKMAILAGAMYIVRGQIAQEYGKDPLSNDKISATVIHTGLSTILHANADCCEDKEVLIAAANKFIRHMVIERPEQSNKKITKESVRENNMFSDIAGFQLISVLTLIQNMIKTCRTDAIEACVTKRKEELEALKPKKEGYSIASSVTGYVGSWFKKAPSMSEEDEEDDLKDQNTAEETSKPTV | not soluble
